How the values were obtained:
[1] = test system: CC(=O)Oc1ccc([N+](=O)[O-])cc1; test: purified protein; assay type: biochemical, Bacteroides ovatus; settings: pH 8.0, 37 °C, 100 mM buffer
[2] = test system: CC(=O)Oc1ccc2c(C)cc(=O)oc2c1; test: purified protein; assay type: biochemical, Bacteroides ovatus; settings: pH 8.0, 37 °C, 100 mM buffer

Row | Substance | Km [1] [µM] | kcat [1] [s⁻¹] | kcat/Km [1] [M⁻¹ s⁻¹] | Km [2] [µM] | kcat [2] [s⁻¹] | kcat/Km [2] [M⁻¹ s⁻¹]
1 | BoCE1 (Bacteroides ovatus) | 1400 ± 100 | 0.7 ± 0.02 | 500 ± 40 | 40 ± 10 | 0.28 ± 0.01 | 7100 ± 1600
2 | BoCE6 (Bacteroides ovatus) | 1800 ± 200 | 36 ± 2.2 | 20100 ± 2700 | 27 ± 6 | 1.2 ± 0.1 | 42800 ± 10000
